Experimental data from US7053185B1, “Lactalbumin production process” (HAMLET Pharma AB, priority 1997, dated 2006).

Tests used:
[1] = test system: tumour cell lines; assay: Tumour cell line viability, vital dye (trypan blue); format: cell-based; conditions: for activity compared with protein isolated from human milk casein: tumour cell lines
Method: The two peaks which are believed to contain MAL were kept separately and tested individually. Testing was carried out as described hereinafter in Example 4. Representative results are set out in Table 1.
(§1) The biological efficacy of the products obtained in the above Examples 1 and 2 above was tested using tumour cell lines as described in Hakansson et al (1995) supra. Cell lines were incubated with samples of the products at various concentrations in cell culture media at 37° C. for various time points. After incubation, the cells are harvested and the cell viability determined using a vital dye (trypan blue).

[2] = test system: tumour cell lines; assay: Apoptosis: oligonucleosome length DNA fragments by agarose gel electrophoresis; format: cell-based; conditions: material eluting at MAL position (1 M NaCl)
Method: as §1
(§2) Oligonucleosome length DNA fragments were detected by agarose gel electrophoresis. Cells (2×10^6) were lysed in 5 mM Tris, 20 mM EDTA, 0.5% Triton X-100 pH 8.0 at 4° C. for 1 hour and centrifuged at 13,000×g for 15 minutes. DNA was ethanol precipitated overnight in −20° C., treated with proteinase K and RNAse, loaded on 1.8% agarose gels and electrophoresed with constant voltage set at 50V overnight. DNA fragments were visualized with ethidium bromide using a 305 nm UV-light source and photographed using Polaroid type 55 positive-negative film.

[3] = test system: L1210 cells; assay: Apoptosis-inducing activity / DNA fragmentation in L1210 cells; format: cell-based; conditions: 0.7 mg/ml
Method: as §2
The lipid concentration was defined in “MAL equivalents” as the amount extracted from a defined mass of MAL. […] However, lipids from 0.5 or 1 mg of MAL had no effect on cell viability or DNA fragmentation. […] MAL lipids were not active at concentrations when intact MAL killed the cells.

[4] = test system: cancer cells and immature cells; conditions: cancer cells and immature cells versus healthy cells; cited from earlier work

Commercial bovine α-lactalbumin, untreated, MAL Peak 2: second MAL peak from commercial (Sigma) bovine α-lactalbumin run on casein trained column
Viability of tumour cells ([1]; Dosage 0.5 mg/ml): 98%
Viability of tumour cells ([1]; Dosage 1.0 mg/ml): 98%

Commercial bovine α-lactalbumin, untreated, MAL Peak 1: first MAL peak from commercial (Sigma) bovine α-lactalbumin run on casein trained column
Viability of tumour cells ([1]; Dosage 0.3 mg/ml): 50%
Viability of tumour cells ([1]; Dosage 0.5 mg/ml): 0%

B1: Native, monomeric α-lactalbumin: native human milk α-lactalbumin converted to multimeric form on casein conditioned column, eluting at MAL position (protein, UniProt P00709 20-142, looked up)
Alpha-lactalbumin: KQFTKCELSQLLKDIDGYGGIALPELICTMFHTSGYDTQAIVENNESTEYGLFQISNKLWCKSSQVPQSRNICDISCDKFLDDDITDDIMCAKKILDIKGIDYWLAHKALCTEKLEQWLCEKL
modifications: multimeric form
notes: native human milk α-lactalbumin converted to multimeric form on casein conditioned column, eluting at MAL position
apoptosis-inducing / biological activity of converted material [2]: no apoptosis-inducing activity

B2: Commercial human α-lactalbumin, Untreated, MAL Peak 2: second MAL peak from commercial (Sigma) human α-lactalbumin run on casein trained column (protein, UniProt P00709 20-142, looked up)
Alpha-lactalbumin: B1 Alpha-lactalbumin
modifications: multimeric form
notes: second MAL peak from commercial (Sigma) human α-lactalbumin run on casein trained column
Viability of tumour cells ([1]; Dosage 1.0 mg/ml): 0%

B3: Human α-lactalbumin+, Untreated, MAL Peak 1: first peak from human milk α-lactalbumin (ammonium sulphate precipitation), untreated, casein trained column (protein, UniProt P00709 20-142, looked up)
Alpha-lactalbumin: B1 Alpha-lactalbumin
modifications: multimeric form
notes: first peak from human milk α-lactalbumin (ammonium sulphate precipitation), untreated, casein trained column
Viability of tumour cells ([1]; Dosage 1.0 mg/ml): 79%

B4: Human α-lactalbumin+, EDTA pre-treatment + EDTA buffer, MAL Peak 1: first peak from EDTA treated human milk α-lactalbumin run with EDTA buffers on casein trained column (protein, UniProt P00709 20-142, looked up)
Alpha-lactalbumin: B1 Alpha-lactalbumin
modifications: multimeric form
notes: first peak from EDTA treated human milk α-lactalbumin run with EDTA buffers on casein trained column
Viability of tumour cells ([1]; Dosage 0.5 mg/ml): 0%
Viability of tumour cells ([1]; Dosage 1.0 mg/ml): 0%

B5: α-lactalbumin treated with EDTA: EDTA treated α-lactalbumin completely converted to oligomeric form on casein conditioned column (protein, UniProt P00709 20-142, looked up)
Alpha-lactalbumin: B1 Alpha-lactalbumin
modifications: oligomeric form
notes: EDTA treated α-lactalbumin completely converted to oligomeric form on casein conditioned column
apoptosis-inducing / biological activity of converted material [2]: significant biological activity

B6: Example 1: multimeric product from commercial monomeric human α-lactalbumin on matrix pre-run with human milk casein (protein, UniProt P00709 20-142, looked up)
Alpha-lactalbumin: B1 Alpha-lactalbumin
modifications: multimeric form
notes: multimeric product from commercial monomeric human α-lactalbumin on matrix pre-run with human milk casein
activity compared with protein isolated from human milk casein [1]: similar

B7: monomeric α-lactalbumin in the molten globule-like state: converted on clean matrix conditioned with lipids extracted from casein conditioned column; single peak at MAL position (protein, UniProt P00709 20-142, looked up)
Alpha-lactalbumin: B1 Alpha-lactalbumin
modifications: molten globule form
notes: converted on clean matrix conditioned with lipids extracted from casein conditioned column; single peak at MAL position
apoptosis-inducing / biological activity of converted material [2]: apoptosis-inducing activity

B8: Human α-lactalbumin+, Untreated, MAL Peak 2: second peak from human milk α-lactalbumin (ammonium sulphate precipitation), untreated, casein trained column (protein, UniProt P00709 20-142, looked up)
Alpha-lactalbumin: B1 Alpha-lactalbumin
modifications: multimeric form
notes: second peak from human milk α-lactalbumin (ammonium sulphate precipitation), untreated, casein trained column
Viability of tumour cells ([1]; Dosage 1.0 mg/ml): 95%

B9: Human α-lactalbumin+, EDTA pre-treatment + EDTA buffer, MAL Peak 2: second peak from EDTA treated human milk α-lactalbumin run with EDTA buffers on casein trained column (protein, UniProt P00709 20-142, looked up)
Alpha-lactalbumin: B1 Alpha-lactalbumin
modifications: multimeric form
notes: second peak from EDTA treated human milk α-lactalbumin run with EDTA buffers on casein trained column
Viability of tumour cells ([1]; Dosage 0.5 mg/ml): 89%
Viability of tumour cells ([1]; Dosage 1.0 mg/ml): 0%

B10: MAL: oligomeric complex of α-lactalbumin in molten globule-like state, from human milk casein by ion exchange, eluting at 1M NaCl (protein, UniProt P00709 20-142, looked up)
Alpha-lactalbumin: B1 Alpha-lactalbumin
modifications: oligomeric molten globule form
notes: oligomeric complex of α-lactalbumin in molten globule-like state, from human milk casein by ion exchange, eluting at 1M NaCl
apoptosis induction (reduction of cell viability, DNA fragments) [3]: induced apoptosis
apoptotic cell death [4]: induces apoptotic cell death in cancer cells and immature cells, but not in healthy cells

B11: Human α-lactalbumin+, EDTA pre-treated, MAL Peak 2: second peak from EDTA pre-treated human milk α-lactalbumin, casein trained column (protein, UniProt P00709 20-142, looked up)
Alpha-lactalbumin: B1 Alpha-lactalbumin
modifications: multimeric form
notes: second peak from EDTA pre-treated human milk α-lactalbumin, casein trained column
Viability of tumour cells ([1]; Dosage ca. 1.5 mg/ml): 98%

B12: Commercial human α-lactalbumin, Untreated, MAL Peak 1: first MAL peak from commercial (Sigma) human α-lactalbumin run on casein trained column (protein, UniProt P00709 20-142, looked up)
Alpha-lactalbumin: B1 Alpha-lactalbumin
modifications: multimeric form
notes: first MAL peak from commercial (Sigma) human α-lactalbumin run on casein trained column
Viability of tumour cells ([1]; Dosage 0.5 mg/ml): 0%
Viability of tumour cells ([1]; Dosage 1.0 mg/ml): 0%

B13: Human α-lactalbumin+, EDTA pre-treated, MAL Peak 1: first peak from EDTA pre-treated human milk α-lactalbumin, casein trained column (protein, UniProt P00709 20-142, looked up)
Alpha-lactalbumin: B1 Alpha-lactalbumin
modifications: multimeric form
notes: first peak from EDTA pre-treated human milk α-lactalbumin, casein trained column
Viability of tumour cells ([1]; Dosage 1.0 mg/ml): 0%

B14: 2: multimeric product from monomeric bovine α-lactalbumin on matrix pre-run with human milk casein (protein, UniProt P00711 20-142, looked up)
Alpha-lactalbumin: EQLTKCEVFRELKDLKGYGGVSLPEWVCTTFHTSGYDTQAIVQNNDSTEYGLFQINNKIWCKDDQNPHSSNICNISCDKFLDDDLTDDIMCVKKILDKVGINYWLAHKALCSEKLDQWLCEKL
modifications: multimeric form
notes: multimeric product from monomeric bovine α-lactalbumin on matrix pre-run with human milk casein
activity compared with protein isolated from human milk casein [1]: similar
